Legend:
[1] = tested on: HeLa Kyoto; assay: melting temperature (median over replicates), in situ; higher = more thermally stable
[2] = tested on: HeLa Kyoto; assay: solubility in G1/S (NP-40 vs SDS abundance) (log2 ratio); higher = more soluble; conditions: cell cycle stage: G1/S
[3] = tested on: HeLa Kyoto; assay: solubility change mitosis vs G1/S (difference of NP-40 vs SDS log2 ratios) (log2 ratio difference); higher = more soluble in mitosis
[4] = tested on: HeLa Kyoto; assay: thermal stability score vs G1/S (z-score of summed log2 fold changes over temperatures); higher = more thermally stable than in G1/S
[5] = cell cycle stage: early G1 (4.5 h after nocodazole release)
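For melting temperature (median over replicates), in situ in this document: HeLa Kyoto cells synchronized by double thymidine or nocodazole block, proteins quantified by TMT10plex mass spectrometry, three independent biological replicates.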
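For solubility change mitosis vs G1/S (difference of NP-40 vs SDS log2 ratios) in this document: synchronized HeLa Kyoto cells (double thymidine block for G1/S, nocodazole release for mitosis), protein amounts in NP-40 versus SDS lysates quantified by mass spectrometry, three biological replicates.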
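For solubility in G1/S (NP-40 vs SDS abundance) in this document: HeLa Kyoto cells arrested at G1/S by double thymidine block, proteins quantified by TMT10plex mass spectrometry in mild NP-40 versus SDS extracts, three biological replicates.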
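For thermal stability score vs G1/S (z-score of summed log2 fold changes over temperatures) in this document: synchronized HeLa Kyoto cells, proteins quantified by TMT10plex mass spectrometry, three biological replicates, mitosis taken 0.5 h after nocodazole release, G1/S directly after double thymidine block.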

Row | Sequence | melting temperature ([1]; cell cycle stage: G1/S) | melting temperature ([1]; cell cycle stage: mitosis) | solubility in G1/S (log2) [2] | solubility change mitosis (log2) [3] | thermal stability score [4, 5] | thermal stability score ([4]; cell cycle stage: mitosis)
1 | MAEARKRRELLPLIYHHLLRAGYVRAAREVKEQSGQKCFLAQPVTLLDIYTHWQQTSELGRKRKAEEDAALQAKKTRVSDPISTSESSEEEEEAEAETAKATPRLASTNSSVLGADLPSSMKEKAKAETEKAGKTGNSMPHPATGKTVANLLSGKSPRKSAEPSANTTLVSETEEEGSVPAFGAAAKPGMVSAGQADSSSEDTSSSSDETDVEGKPSVKPAQVKASSVSTKESPARKAAPAPGKVGDVTPQVKGGALPPAKRAKKPEEESESSEEGSESEEEAPAGTRSQVKASEKILQVRAASAPAKGTPGKGATPAPPGKAGAVASQTKAGKPEEDSESSSEESSDSEEETPAAKALLQAKASGKTSQVGAASAPAKESPRKGAAPAPPGKTGPAVAKAQAGKREEDSQSSSEESDSEEEAPAQAKPSGKAPQVRAASAPAKESPRKGAAPAPPRKTGPAAAQVQVGKQEEDSRSSSEESDSDREALAAMNAAQVKPLGKSPQVKPASTMGMGPLGKGAGPVPPGKVGPATPSAQVGKWEEDSESSSEESSDSSDGEVPTAVAPAQEKSLGNILQAKPTSSPAKGPPQKAGPVAVQVKAEKPMDNSESSEESSDSADSEEAPAAMTAAQAKPALKIPQTKACPKKTNTTASAKVAPVRVGTQAPRKAGTATSPAGSSPAVAGGTQRPAEDSSSSEESDSEEEKTGLAVTVGQAKSVGKGLQVKAASVPVKGSLGQGTAPVLPGKTGPTVTQVKAEKQEDSESSEEESDSEEAAASPAQVKTSVKKTQAKANPAAARAPSAKGTISAPGKVVTAAAQAKQRSPSKVKPPVRNPQNSTVLARGPASVPSVGKAVATAAQAQTGPEEDSGSSEEESDSEEEAETLAQVKPSGKTHQIRAALAPAKESPRKGAAPTPPGKTGPSAAQAGKQDDSGSSSEESDSDGEAPAAVTSAQVIKPPLIFVDPNRSPAGPAATPAQAQAASTPRKARASESTARSSSSESEDEDVIPATQCLTPGIRTNVVTMPTAHPRIAPKASMAGASSSKESSRISDGKKQEGPATQVSKKNPASLPLTQAALKVLAQKASEAQPPVARTQPSSGVDSAVGTLPATSPQSTSVQAKGTNKLRKPKLPEVQQATKAPESSDDSEDSSDSSSGSEEDGEGPQGAKSAHTLGPTPSRTETLVEETAAESSEDDVVAPSQSLLSGYMTPGLTPANSQASKATPKLDSSPSVSSTLAAKDDPDGKQEAKPQQAAGMLSPKTGGKEAASGTTPQKSRKPKKGAGNPQASTLALQSNITQCLLGQPWPLNEAQVQASVVKVLTELLEQERKKVVDTTKESSRKGWESRKRKLSGDQPAARTPRSKKKKKLGAGEGGEASVSPEKTSTTSKGKAKRDKASGDVKEKKGKGSLGSQGAKDEPEEELQKGMGTVEGGDQSNPKSKKEKKKSDKRKKDKEKKEKKKKAKKASTKDSESPSQKKKKKKKKTAEQTV [TCOF1] | 53.2 °C | 52.9 °C | -0.327 | 0.223 | -3.49 | -1.37
2 | MAECGRGGAAGGALPTSPGPALGAKGALKAGVGEGGGGGGRLGHGRARYDSGGVSNGDCSLGVSGDEARASPTRGPRGVALAPTPSAVVCTLPRESKPGGLPRRSSIIKDGTKQKRERKKTVSFSSMPTEKKISSASDCINSMVEGSELKKVRSNSRIYHRYFLLDADMQSLRWEPSKKDSEKAKIDIKSIKEVRTGKNTDIFRSNGISDQISEDCAFSVIYGENYESLDLVANSADVANIWVTGLRYLISYGKHTLDMLESSQDNMRTSWVSQMFSEIDVDNLGHITLCNAVQCIRNLNPGLKTSKIELKFKELHKSKDKAGTEVTKEEFIEVFHELCTRPEIYFLLVQFSSNKEFLDTKDLMMFLEAEQGVAHINEEISLEIIHKYEPSKEGQEKGWLSIDGFTNYLMSPDCYIFDPEHKKVCQDMKQPLSHYFINSSHNTYLIEDQFRGPSDITGYIRALKMGCRSVELDVWDGPDNEPVIYTGHTMTSQIVFRSVIDIINKYAFFASEYPLILCLENHCSIKQQKVMVQHMKKLLGDKLYTTSPNVEESYLPSPDVLKGKILIKAKKLSSNCSGVEGDVTDEDEGAEMSQRMGKENMEQPNNVPVKRFQLCKELSELVSICKSVQFKEFQVSFQVQKYWEVCSFNEVLASKYANENPGDFVNYNKRFLARVFPSPMRIDSSNMNPQDFWKCGCQIVAMNFQTPGLMMDLNIGWFRQNGNCGYVLRPAIMREEVSFFSANTKDSVPGVSPQLLHIKIISGQNFPKPKGSGAKGDVVDPYVYVEIHGIPADCAEQRTKTVHQNGDAPIFDESFEFQINLPELAMVRFVVLDDDYIGDEFIGQYTIPFECLQTGYRHVPLQSLTGEVLAHASLFVHVAITNRRGGGKPHKRGLSVRKGKKSREYASLRTLWIKTVDEVFKNAQPPIRDATDLRENMQNAVVSFKELCGLSSVANLMQCMLAVSPRFLGPDNTPLVVLNLSEQYPTMELQGIVPEVLKKIVTTYDMMIQSLKALIENADAVYEKIVHCQKAAMEFHEHLHSIGTKEGLKERKLQKAVESFTWNITILKGQADLLKYAKNETLENLKQIHFAAVSCGLNKPGTENADVQKPRRSLEVIPEKANDETGE [PLCL2] | 50.4 °C | 50.2 °C | -0.0622 | -0.105 | -0.0105 | -0.32
3 | MAEERPGAWFGFGFCGFGQELGSGRGRQVHSPSPLRAGVDICRVSASWSYTAFVTRGGRLELSGSASGAAGRCKDAWASEGLLAVLRAGPGPEALLQVWAAESALRGEPLWAQNVVPEAEGEDDPAGEAQAGRLPLLPCARAYVSPRAPFYRPLAPELRARQLELGAEHALLLDAAGQVFSWGGGRHGQLGHGTLEAELEPRLLEALQGLVMAEVAAGGWHSVCVSETGDIYIWGWNESGQLALPTRNLAEDGETVAREATELNEDGSQVKRTGGAEDGAPAPFIAVQPFPALLDLPMGSDAVKASCGSRHTAVVTRTGELYTWGWGKYGQLGHEDTTSLDRPRRVEYFVDKQLQVKAVTCGPWNTYVYAVEKGKS [RCCD1] | 51.8 °C | 54 °C | 0.0194 | -0.0463 | -0.546 | -1.48
4 | MAEGDEAARGQQPHQGLWRRRRTSDPSAAVNHVSSTTSLGENYEDDDLVNSDEVMKKPCPVQIVLAHEDDHNFELDEEALEQILLQEHIRDLNIVVVSVAGAFRKGKSFLLDFMLRYMYNKDSQSWIGGNNEPLTGFTWRGGCERETTGIQVWNEVFVIDRPNGTKVAVLLMDTQGAFDSQSTIKDCATVFALSTMTSSVQVYNLSQNIQEDDLQHLQLFTEYGRLAMEEIYQKPFQTLMFLIRDWSYPYEHSYGLEGGKQFLEKRLQVKQNQHEELQNVRKHIHNCFSNLGCFLLPHPGLKVATNPSFDGRLKDIDEDFKRELRNLVPLLLAPENLVEKEISGSKVTCRDLVEYFKAYIKIYQGEELPHPKSMLQATAEANNLAAVAGARDTYCKSMEQVCGGDKPYIAPSDLERKHLDLKEVAIKQFRSVKKMGGDEFCRRYQDQLEAEIEETYANFIKHNDGKNIFYAARTPATLFAVMFAMYIISGLTGFIGLNSIAVLCNLVMGLALIFLCTWAYVKYSGEFREIGTVIDQIAETLWEQVLKPLGDNLMEENIRQSVTNSIKAGLTDQVSHHARLKTD [ATL2] | 51.8 °C | 51.8 °C | -0.0336 | -0.192 | -0.416 | -0.584
5 | MAEGEDVPPLPTSSGDGWEKDLEEALEAGGCDLETLRNIIQGRPLPADLRAKVWKIALNVAGKGDSLASWDGILDLPEQNTIHKDCLQFIDQLSVPEEKAAELLLDIESVITFYCKSRNIKYSTSLSWIHLLKPLVHLQLPRSDLYNCFYAIMNKYIPRDCSQKGRPFHLFRLLIQYHEPELCSYLDTKKITPDSYALNWLGSLFACYCSTEVTQAIWDGYLQQADPFFIYFLMLIILVNAKEVILTQESDSKEEVIKFLENTPSSLNIEDIEDLFSLAQYYCSKTPASFRKDNHHLFGSTLLGIKDDDADLSQALCLAISVSEILQANQLQGEGVRFFVVDCRPAEQYNAGHLSTAFHLDSDLMLQNPSEFAQSVKSLLEAQKQSIESGSIAGGEHLCFMGSGREEEDMYMNMVLAHFLQKNKEYVSIASGGFMALQQHLADINVDGPENGYGHWIASTSGSRSSINSVDGESPNGSSDRGMKSLVNKMTVALKTKSVNVREKVISFIENTSTPVDRMSFNLPWPDRSCTERHVSSSDRVGKPYRGVKPVFSIGDEEEYDTDEIDSSSMSDDDRKEVVNIQTWINKPDVKHHFPCKEVKESGHMFPSHLLVTATHMYCLREIVSRKGLAYIQSRQALNSVVKITSKKKHPELITFKYGNSSASGIEILAIERYLIPNAGDATKAIKQQIMKVLDALES [TBC1D23] | 50.5 °C | 50 °C | 0.0926 | 0.0232 | 0.43 | 0.147
6 | MAEHPPLLDTTQILSSDISLLSAPIVSADGTQQVILVQVNPGEAFTIRREDGQFQCITGPAQVPMMSPNGSVPPIYVPPGYAPQVIEDNGVRRVVVVPQAPEFHPGSHTVLHRSPHPPLPGFIPVPTMMPPPPRHMYSPVTGAGDMTTQYMPQYQSSQVYGDVDAHSTHGRSNFRDERSSKTYERLQKKLKDRQGTQKDKMSSPPSSPQKCPSPINEHNGLIKGQIAGGINTGSAKIKSGKGKGGTQVDTEIEEKDEETKAFEALLSNIVKPVASDIQARTVVLTWSPPSSLINGETDESSVPELYGYEVLISSTGKDGKYKSVYVGEETNITLNDLKPAMDYHAKVQAEYNSIKGTPSEAEIFTTLSCEPDIPNPPRIANRTKNSLTLQWKAPSDNGSKIQNFVLEWDEGKGNGEFCQCYMGSQKQFKITKLSPAMGCKFRLSARNDYGTSGFSEEVLYYTSGCAPSMPASPVLTKAGITWLSLQWSKPSGTPSDEGISYILEMEEETSGYGFKPKYDGEDLAYTVKNLRRSTKYKFKVIAYNSEGKSNPSEVVEFTTCPDKPGIPVKPSVKGKIHSHSFKITWDPPKDNGGATINKYVVEMAEGSNGNKWEMIYSGATREHLCDRLNPGCFYRLRVYCISDGGQSAVSESLLVQTPAVPPGPCLPPRLQGRPKAKEIQLRWGPPLVDGGSPISCYSVEMSPIEKDEPREVYQGSEVECTVSSLLPGKTYSFRLRAANKMGFGPFSEKCDITTAPGPPDQCKPPQVTCRSATCAQVNWEVPLSNGTDVTEYRLEWGGVEGSMQICYCGPGLSYEIKGLSPATTYYCRVQALSVVGAGPFSEVVACVTPPSVPGIVTCLQEISDDEIENPHYSPSTCLAISWEKPCDHGSEILAYSIDFGDKQSLTVGKVTSYIINNLQPDTTYRIRIQALNSLGAGPFSHMIKLKTKPLPPDPPRLECVAFSHQNLKLKWGEGTPKTLSTDSIQYHLQMEDKNGRFVSLYRGPCHTYKVQRLNESTSYKFCIQACNEAGEGPLSQEYIFTTPKSVPAALKAPKIEKVNDHICEITWECLQPMKGDPVIYSLQVMLGKDSEFKQIYKGPDSSFRYSSLQLNCEYRFRVCAIRQCQDSLGHQDLVGPYSTTVLFISQRTEPPASTNRDTVESTRTRRALSDEQCAAVILVLFAFFSILIAFIIQYFVIK [FNDC3A] | 48.7 °C | 49.1 °C | -0.111 | -0.0736 | 1.05 | 2.65
7 | MAEMATATRLLGWRVASWRLRPPLAGFVSQRAHSLLPVDDAINGLSEEQRQLRQTMAKFLQEHLAPKAQEIDRSNEFKNLREFWKQLGNLGVLGITAPVQYGGSGLGYLEHVLVMEEISRASGAVGLSYGAHSNLCINQLVRNGNEAQKEKYLPKLISGEYIGALAMSEPNAGSDVVSMKLKAEKKGNHYILNGNKFWITNGPDADVLIVYAKTDLAAVPASRGITAFIVEKGMPGFSTSKKLDKLGMRGSNTCELIFEDCKIPAANILGHENKGVYVLMSGLDLERLVLAGGPLGLMQAVLDHTIPYLHVREAFGQKIGHFQLMQGKMADMYTRLMACRQYVYNVAKACDEGHCTAKDCAGVILYSAECATQVALDGIQCFGGNGYINDFPMGRFLRDAKLYEIGAGTSEVRRLVIGRAFNADFH [IVD] | 54 °C | 53.8 °C | 0.138 | -0.107 | -0.748 | -4.11
